Data on 103 substances can be found in the supplement of paper PMC12042874.

A short description of this data set: amyloid nucleation score (Sup35N fusion, yeast selection) (log enrichment); library NNK2; higher = more nucleation; inactive = no reads after selection. A digest of the protocol:
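Plasmid inserts were Illumina-sequenced at input and output from psi-negative yeast expressing Sup35N fused to peptides of 20 random codons. The yeast were induced with 100 μM copper sulfate for 24 hours and grown 7 days at 30°C on medium lacking adenine and uracil, and sequences with under 100 input reads were excluded. Nucleation score is the DiMSum log enrichment of output over input reads, centred on the mode score of non-aggregating sequences.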

± gives the uncertainty stated by the source.

SVSLDMGFSLDSHMRGEGRS came in with an amyloid nucleation score of 5.22 ± 0.057. The value for CHTTMPGIVCKLGTYARGEG was 6.638 ± 0.066.

YPRALIHVWKKSLVHTSRCR returned an amyloid nucleation score of 7.14 ± 0.079. With YSFNALRRY the figure was 0.632 ± 0.25; with MEPYRVKAMYPPRVIKVWFT, -0.448 ± 0.76; with HYRDPFVKRLMKPVGRPATL, 0.192 ± 0.55.

Substance LGGSSENYGVDCNYYPEMWG yielded an amyloid nucleation score of -1.24 ± 0.54.

In the case of KYTGMKYRPTVCLGVEVQLK, the amyloid nucleation score is 3.83 ± 0.062. SVGEFSVRWAACGDLWCW displayed an amyloid nucleation score of 0.725 ± 0.2. As to RGRLMCSYLILNFCRSG, the amyloid nucleation score was 3.04 ± 0.12. The substance LGLCHMLLSDAGWRVRCRGK showed an amyloid nucleation score of 0.276 ± 1. The value for DNGNWVCWLHVLGQGSHRKA was “inactive”; that for CWLGASTSNGLPAAGPSGLH was 0.868 ± 0.55.

Turning to VSFRYCLYYYTENVVHMIVK, the amyloid nucleation score was -1.85 ± 0.54. The value for LSHMLDLRGNNKSFWCYVEG was 0.89 ± 0.44; that for YVHMMSMKPHQLINCLRLFY was -1.2 ± 0.74; that for LVCSCIGHVHGVTH was 7.125 ± 0.067. With PPRKTIELCSTQP the figure was 0.7 ± 0.35; with ILSPTSL, 1.26 ± 0.52; with CPTNIRP, -1.18 ± 0.63. The value for SIFNFKATFGNSSRDVMSDD was 3.28 ± 0.057. Substance WCMLRYCVESGLSVSFMHFS showed an amyloid nucleation score of -0.626 ± 0.63. With GKINITAFAWLKAFADRHWI the figure was 0.705 ± 0.8. With NWVRINYWLRAIIKSELRVG the figure was -0.155 ± 0.49; with GTFQSYHDTPEECSFRGKSV, -0.114 ± 1.1. With SHRMTSNNTNSNLLGRKTGS the figure was -0.139 ± 0.19; with RVKRRMSFVVAVAQVMGLVG, 0.475 ± 0.23. Turning to MRVDLKLVSAYLKSRFGPMF, the amyloid nucleation score is -0.341 ± 0.79.

For MRLTTGINF, the amyloid nucleation score is -1.14 ± 0.76. NYQIHVRVIRHLMTLGISAQ registered an amyloid nucleation score of 0.236 ± 0.35. As for LQVRLDTRR, the amyloid nucleation score was found to be 0.043 ± 0.5. The value for LRLGHVIPGVKNCREEND was -0.745 ± 0.3; that for NIVYESDVVFSCISKYWL was 5.426 ± 0.04; that for LWMDWS was 0.754 ± 0.36.

CHHTAYPMANFWQWLKGAMS showed an amyloid nucleation score of 0.069 ± 0.35. The value for GKFCIFASMADLMEW was -0.491 ± 0.42. With SYLKETMTGLLPLG the entry was “inactive”; with VDFFVFHLVTDSIMSYAHCM, 0.633 ± 0.66. Substance FNTGSSMLLLIRVMVGKFGG yielded an amyloid nucleation score of -1.57 ± 1.1.

RLTVRWAYMSLLTVGQGGIM showed an amyloid nucleation score of 0.21 ± 1. The substance LVLSGGRV registered an amyloid nucleation score of 0.184 ± 0.42. The value for MSPVCLCCYLPTRVYCKVSG was 5.85 ± 0.084; that for FCCFRVYVDMENLSNSALTL was 7.557 ± 0.033.

Substance SVNAIRTQGLRSRMQFMKTG registered an amyloid nucleation score of -0.394 ± 1.1. The value for SIRIKRLSNLQSRNPVRPRV was -0.578 ± 1.1. The value for HLPVSLFYRDS was 0.165 ± 0.41; that for IRCRVRK was 0.484 ± 0.4.

Turning to MIICLEVKTGYST, the amyloid nucleation score is 3.73 ± 0.068. With FQWQLMVFSADEFQNMAHMI the figure was 0.182 ± 0.79; with AVWAEEGMPLMLGACRRTWG, 1.25 ± 0.26. The value for HSKTYLKGRLCNSLVWSYES was 0.712 ± 0.47.

Take TRFFTSLK: the amyloid nucleation score is -0.402 ± 0.61. With PINKGKWCSTNFNAGITRI the figure was -0.01 ± 0.61; with LVLLVPGKLMCF, 4.12 ± 0.081; with CMFWSHYTIRFSSWWLGGCE, -0.149 ± 0.79. The value for TSMVNSFYKTRGTIK was “inactive”; that for TGYVTRIVAAFCSQKIFVWV was -0.547 ± 0.49. With RLIYLCGSRGPNTEFVRVKR the figure was 3.21 ± 0.055. The substance IFWYRCNINSGCEQVVYWGN displayed an amyloid nucleation score of 5.311 ± 0.033. As for ILKPYCVCDLSNKLE, the amyloid nucleation score is 0.199 ± 0.4. With SESMFLVKDSLTWTDVFLIG the figure was -1.07 ± 1.1; with SSLNM, -0.595 ± 0.61; with TYCFLGFQNIPSMLNPMNFG, 2.98 ± 0.046. The value for RHLVIYRLVNCKSARLSRTL was “inactive”. With DVVILMF the figure was 0.639 ± 0.5. With IDYVFAAGDKWWVSVLL, the amyloid nucleation score is -0.412 ± 1.1.

GRCPVSRVHGIQRSGDGSVI returned an amyloid nucleation score of -0.383 ± 1.1. The value for HDYRVTYDVF was -1.24 ± 1.1; that for VGGWGWGHCPQRRQHVSLPV was 0.825 ± 0.53; that for EAYLDCYRLLFWFLFM was “inactive”. With WYSSGMTGIIRRVDKWCAFS the figure was -0.939 ± 0.45; with TWSEWSTCRMGATRSH, 0.301 ± 0.27. For the substance RVVLCVNLSPTSFVWSRIKE, the amyloid nucleation score turned out to be 3.45 ± 0.15. With DRNYVQNSSTKMHYWASFLT the figure was 1.71 ± 0.17; with WINLSRFFSLGKFRIAIRYY, -1.04 ± 1.1.

For the substance SHLALTY, the amyloid nucleation score amounted to 0.14 ± 0.25.

For FTFIGGYVSYYRCIPIGILP, the amyloid nucleation score is 0.33 ± 0.74. With RSVSTTHRCRTTLKTSNYCL the figure was 0.778 ± 0.67; with RFFYYVVTLDAFNTFHKHLG, -1.56 ± 1.1; with PTRDKVATEGHGNGLIYNRF, 0.306 ± 0.65. With IDVLTQLNSFRMNFYVSANI the figure was -0.868 ± 1.1. The value for CMFFCYYLWMMRMVWSVTWS was -0.589 ± 0.53; that for SVTYWGWPTILAVRKCLFNS was 2.5 ± 0.091; that for YEGPWQLIVVSTISVFTNSC was -0.156 ± 0.38. The substance SNVYYRVC had an amyloid nucleation score of 4.72 ± 0.084.

VTRHLVVLNKYKWLGRLSTI registered an amyloid nucleation score of -1.04 ± 0.76.

Substance GCGVL came in with an amyloid nucleation score of -0.91 ± 0.55. Take NWWLTHVHLVSFYVVSWGWV: the amyloid nucleation score turned out to be 3.35 ± 0.12.

As to DCSYYPSGIFMGLMFNLIAM, the amyloid nucleation score came out at 3.23 ± 0.064. The value for FLFETMVIFSSSEMVWRDWC was 0.192 ± 1; that for IWQNVDCCPSWRLCVANHFM was 6.778 ± 0.054; that for RMLADGVTLVPCWALQL was 0.57 ± 0.43. The value for SMFCVPFMINLVLYVMGEVW was 0.288 ± 0.64; that for YMCCFYAVGFPFDYKLGFVR was 4.35 ± 0.068. The value for ATGSYSMITLDIFQSNCSDA was 3.51 ± 0.053; that for VWGFVSGIESMCGSKAPNGG was -0.158 ± 0.33. NICITHPH displayed an amyloid nucleation score of 0.299 ± 0.64. The value for FLLDCN was 2.56 ± 0.15; that for YLASNLEDKWVWDGFMLVSR was 0.356 ± 0.74. In turn, VTVLTGVG had an amyloid nucleation score of 4.79 ± 0.058.

The substance TCVALSYLVGGSALNS came in with an amyloid nucleation score of -0.818 ± 0.78. The value for YAIDRRKSL was “inactive”. With SFRQIATLYEKMFNDNGNGI the figure was -0.528 ± 0.37.
